Measured values taken from the RNAGym collection of RNA variant scans (doi:10.1093/molbev/msab373).

B1: Azoarcus group I ribozyme (parent)
chain: GUGCCUUGCGCCGGGAAACCACGCAAGGGAUGGUGUCAAAUUCGGCGAAACCUAAGCGCCCGCCCGGGCGUAUGGCAACGCCGAGCCAAGCUUCGGCGCCUGCGCCGAUGAAGGUGUAGAGACUAGACGGCACCCACCUAAGGCAAACGCUAUGGUGAAGGCAUAGUCCAGGGAGUGGCGAAAGUCACACAAACCGG

Variants of: B1
Assay: reverse-splicing fitness (ratio to wild type); higher = more active; in vitro selection; Mg2+ level not given
In short: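 An in vitro group I ribozyme library with randomized positions was T7-transcribed and gel-purified. In triplicate, 10 pmol RNA in EPPS pH 7.5 was reacted with 50 pmoles of a 30-nt RNA substrate for 1 h at 37 °C across several added MgCl2 levels (1–48 mM), then stopped with EDTA. Products were reverse transcribed from a substrate-complementary primer, PCR-amplified and sequenced (HiSeq 4000). Fitness is a variant's read proportion after selection over that before, normalised to wild type.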

Variant | reverse-splicing fitness
C82G A111U A120G A145C C150A C169U U176C | 0.0103
C82G A111U A120G A145C C150A C169U U176A | 0.0211
C82G A111U A120G A145C C150A C169U U176G | 0.00529
C82G A111U A120G A145C C150U C169G | 0.00915
C82G A111U A120G A145C C150U C169A | 0.00886
C82G A111U A120G A145C C150U C169U | 0.00738
C82G A111U A120G A145C C150U C169G U176C | 0.0136
C82G A111U A120G A145C C150U C169G U176G | 0.00518
C82G A111U A120G A145C C150U C169G U176A | 0.023
C82G A111U A120G A145U C150A U176G | 0.00661
C82G A111U A120G A145U C150A U176C | 0.0173
C82G A111U A120G A145U C150A U176A | 0.0108
C82G A111U A120G A145C C169G U176G | 0.00404
C82G A111U A120G A145C C169G U176C | 0.0172
C82G A111U A120G A145C C169G U176A | 0.0245
C82G A111U A120U A145C C150A C169A | 0.00264
C82G A111U A120U A145C C150A C169U | 0.0027
C82G A111U A120U A145C C150A C169G | 0.00272
C82G A111U A120G C150A U176C | 0.0195
C82G A111U A120G C150A U176A | 0.0143
C82G A111U A120G C150A U176G | 0.0103

Variant | reverse-splicing fitness
C82G A111U A120G A145U C150U | 0.0139
C82G A111U A120G A145U C150A | 0.00819
C82G A111U A120G A145U C150G | 0.00715
C82G A111U A120U A145C C169A | 0.00222
C82G A111U A120U A145C C169G | 0.00383
C82G A111U A120U A145C C169U | 0.00386
C82G A111U A120G A145C C150G C169G | 0.00796
C82G A111U A120G A145C C150G C169U | 0.0084
C82G A111U A120G A145C C150G C169A | 0.00877
C82G A111U A120C C169G | 0.00915
C82G A111U A120C C169U | 0.0134
C82G A111U A120C C169A | 0.00833
C82G A111U A120G A145G U176C | 0.0176
C82G A111U A120G A145G U176A | 0.0125
C82G A111U A120G A145G U176G | 0.0077
C82G A111U A120U A145C C150U C169U U176C | 0.00208
C82G A111U A120U A145C C150U C169U U176A | 0.00361
C82G A111U A120U A145C C150U C169U U176G | 0.00228
C82G A111U A120G A145G C150G C169U U176C | 0.0128
C82G A111U A120G A145G C150G C169U U176G | 0.00754
C82G A111U A120G A145G C150G C169U U176A | 0.0116

Variant | reverse-splicing fitness
C82G A111U A120G A145C U176A | 0.012
C82G A111U A120G A145C U176C | 0.0136
C82G A111U A120G A145C U176G | 0.0065
C82G A111U A120G C150A C169A U176C | 0.0211
C82G A111U A120G C150A C169A U176G | 0.00601
C82G A111U A120G C150A C169A U176A | 0.0207
C82G A111U A120C C150U U176G | 0.00892
C82G A111U A120C C150U U176C | 0.0248
C82G A111U A120C C150U U176A | 0.0133
C82G A111U A120G C150A C169G U176G | 0.00607
C82G A111U A120G C150A C169G U176C | 0.0245
C82G A111U A120G C150A C169G U176A | 0.0227
C82G A111U A120G A145C C150G C169G U176C | 0.00745
C82G A111U A120G A145C C150G C169G U176G | 0.00464
C82G A111U A120G A145C C150G C169G U176A | 0.00853
C82G A111U A120G A145C C150A C169A U176C | 0.00752
C82G A111U A120G A145C C150A C169A U176G | 0.00583
C82G A111U A120G A145C C150A C169A U176A | 0.0145
C82G A111U A120G A145U C169A U176G | 0.00445
C82G A111U A120G A145U C169A U176C | 0.0135
C82G A111U A120G A145U C169A U176A | 0.0133

Variant | reverse-splicing fitness
C82G A111U A120G A145G C169U | 0.00985
C82G A111U A120G A145G C169A | 0.0111
C82G A111U A120G A145G C169G | 0.0141
C82G A111U A120G A145C C150U C169A U176A | 0.0138
C82G A111U A120G A145C C150U C169A U176C | 0.0083
C82G A111U A120G A145C C150U C169A U176G | 0.00544
C82G A111U A120G C150A C169U U176C | 0.0215
C82G A111U A120G C150A C169U U176G | 0.00759
C82G A111U A120G C150A C169U U176A | 0.0244
C82G A111U A120U A145C C150G C169G U176A | 0.00357
C82G A111U A120U A145C C150G C169G U176G | 0.00237
C82G A111U A120U A145C C150G C169G U176C | 0.00235
C82G A111U A120G C150G C169G U176A | 0.0069
C82G A111U A120G C150G C169G U176G | 0.00471
C82G A111U A120G C150G C169G U176C | 0.00484
C82G A111U A120G C150G C169A U176C | 0.0111
C82G A111U A120G C150G C169A U176A | 0.0115
C82G A111U A120G C150G C169A U176G | 0.00726
C82G A111U A120G A145U C150G C169A U176G | 0.00513
C82G A111U A120G A145U C150G C169A U176A | 0.0104
C82G A111U A120G A145U C150G C169A U176C | 0.0114
